The target of one assay is T1, β2AR365N (human, UniProt P07550 2-365).
T1 construct: also called non-fused β2AR365N; human β2 adrenergic receptor Gly2 to Gly365, N187E
Nature of the assay: not described.

Assay [1] addresses T2, human mu-opioid receptor (hMor1) (human, UniProt P35372 6-360). Nature of the assay: cell-based or functional assay.
Assay [2] deals with T2, human mu-opioid receptor (hMor1). Description: not described.

T2 sequence (P35372 6-360, tags or fused parts left off): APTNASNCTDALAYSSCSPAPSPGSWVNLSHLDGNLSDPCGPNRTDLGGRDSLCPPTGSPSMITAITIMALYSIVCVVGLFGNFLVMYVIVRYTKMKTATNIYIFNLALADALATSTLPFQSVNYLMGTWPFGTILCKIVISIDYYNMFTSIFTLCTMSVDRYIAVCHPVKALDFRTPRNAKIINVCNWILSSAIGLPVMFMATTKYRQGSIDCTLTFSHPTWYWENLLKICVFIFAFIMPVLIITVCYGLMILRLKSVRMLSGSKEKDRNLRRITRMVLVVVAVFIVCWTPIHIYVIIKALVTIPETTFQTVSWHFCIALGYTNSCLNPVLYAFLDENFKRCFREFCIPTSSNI

B1: Nb69 (VHH)
VHH: QVQLQESGGGLVQAGGSLRLSCTASGLTLSNYAMGWFRQAPGKEREFVAADTWNGNTYHQDSVKGRFTISRDNAKNTVYLQMNYLKPEDTAVYYCAARGSRRSAYYSSSDYTYRGQGTQVTVSS
notes: Described as specific for the rat muscarinic receptor M3; Used as the mock fusion partner and as an exogenously added control; also called CA5669; mock Single-domain antibody
Turning to B1, in the assay with β2AR365N, the binding result was “no binding”.

B2: Nb33 (VHH)
VHH: QVQLQESGGGLVRPGGSRRLSCVDSERTSYPMGWFRRAPGKEREFVASITWSGIDPTYADSVADRFTISRDVANNTLYLQMNSLKHEDTAVYYCAARAPVGQSSSPYDYDYWGQGTQVTVSS
Consider B2, for which, in assay [1], the “IC50 ratio, Dmt1-Dalda: hMor1-34GS-Nb10 versus hMor1-34GS-Nb33 fusion ([3H]-diprenorphine competition, Sf9 membranes; Nb fused to the receptor)” value was 36 ratio; the “IC50 ratio, KGOP01: hMor1-34GS-Nb10 versus hMor1-34GS-Nb33 fusion” value is 20 ratio; the “IC50 ratio, naloxone: hMor1-34GS-Nb10 versus hMor1-34GS-Nb33 fusion” value stood at 2 ratio.

B3: Nb10 (VHH)
VHH: QVQLQESGGGLVQPGGSLRLSCAASGSFRSIVSMAWYRQAPGKQRELVASSNSGGSTNYADSVKGRFTISRDNAKNTVYLQMNSLKPEDTAVYWCNVQNRLPGFDAFSGRSIAETYWGQGTQVTVSS
notes: also called CA4910; irrelevant Single-domain antibody
In the case of B3, the binding result in assay [2] is reported as “no binding”.
